Source: paper PMC9352680, “A comprehensive thermodynamic model for RNA binding by the Saccharomyces cerevisiae Pumilio protein PUF4”
Positions count from the first letter of the chain named. In names and notes the source's numbering stands.

T1: PUF4 RNA-binding domain (Saccharomyces cerevisiae, UniProt P25339 537-888)
T1 sequence: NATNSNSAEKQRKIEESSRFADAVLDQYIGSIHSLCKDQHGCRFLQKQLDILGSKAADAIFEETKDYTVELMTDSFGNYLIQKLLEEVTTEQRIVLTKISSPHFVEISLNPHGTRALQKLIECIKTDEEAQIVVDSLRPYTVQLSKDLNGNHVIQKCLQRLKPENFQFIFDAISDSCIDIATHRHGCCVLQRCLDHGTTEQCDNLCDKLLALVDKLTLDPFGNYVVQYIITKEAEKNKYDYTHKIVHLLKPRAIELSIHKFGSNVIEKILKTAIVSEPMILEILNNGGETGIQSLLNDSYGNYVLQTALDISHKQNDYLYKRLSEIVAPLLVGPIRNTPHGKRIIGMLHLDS

B1: Ie_S1_P5E.1_K5.1_C5.1_H5.1_A5.1_F5.1_[+9CCTCT]_T5.1 (ssRNA)
RNA: UCUCUUUGUAUUAUUCCUCUAUCUCUU
B2: Ie_S1_P5E.1_K5.1_C5.1_H5.1_A5.1_F5.1_[+8TTCC]_T5.1 (ssRNA)
RNA: UCUCUUUGUAUUAUUUCCUAUCUCUU
B3: Ie_S1_P5E.1_K5.1_C5.1_H5.1_A5.1_[+6CCTCT]_F5.1_T5.1 (ssRNA)
RNA: UCUCUUUGUAUUCCUCUAUUAUCUCUU
B4: Ie_S1_P5E.1_K5.1_C5.1_H5.1_A5.1_F5.1_[+8CC]_T5.1 (ssRNA)
RNA: UCUCUUUGUAUUAUCCUAUCUCUU
B5: Ie_S1_P5E.1_K5.1_C5.1_H5.1_A5.1_F5.1_[+9CCCTT]_T5.1 (ssRNA)
RNA: UCUCUUUGUAUUAUUCCCUUAUCUCUU
B6: Ie_S1_P5E.1_K5.1_C5.1_H5.1_A5.1_[+7CCTC]_F5.1_T5.1 (ssRNA)
RNA: UCUCUUUGUAUUACCUCUUAUCUCUU
B7: Ie_S1_P5E.1_K5.1_C5.1_H5.1_A5.1_[+6CCC]_F5.1_T5.1 (ssRNA)
RNA: UCUCUUUGUAUUCCCAUUAUCUCUU
B8: Ie_S1_P5E.1_K5.1_C5.1_H5.1_A5.1_F5.1_[+9TTCCT]_T5.1 (ssRNA)
RNA: UCUCUUUGUAUUAUUUUCCUAUCUCUU
B9: Ie_S1_P5E.1_K5.1_C5.1_H5.1_A5.1_[+5CCTCT]_F5.1_T5.1 (ssRNA)
RNA: UCUCUUUGUAUCCUCUUAUUAUCUCUU
B10: Ie_S1_P5E.1_K5.1_C5.1_H5.1_A5.1_[+7CCTCT]_F5.1_T5.1 (ssRNA)
RNA: UCUCUUUGUAUUACCUCUUUAUCUCUU
B11: Ie_S1_P5E.1_K5.1_C5.1_H5.1_A5.1_F5.1_[+9TCC]_T5.1 (ssRNA)
RNA: UCUCUUUGUAUUAUUUCCAUCUCUU
B12: Ie_S1_P5E.1_K5.1_C5.1_H5.1_A5.1_[+5TTCCT]_F5.1_T5.1 (ssRNA)
RNA: UCUCUUUGUAUUUCCUUAUUAUCUCUU
B13: Ie_S1_P5E.1_K5.1_C5.1_H5.1_A5.1_[+5CCCTT]_F5.1_T5.1 (ssRNA)
RNA: UCUCUUUGUAUCCCUUUAUUAUCUCUU
B14: Ie_S1_P5E.1_K5.1_C5.1_H5.1_A5.1_F5.1_[+8CTC]_T5.1 (ssRNA)
RNA: UCUCUUUGUAUUAUCUCUAUCUCUU
B15: Ie_S1_P5E.1_K5.1_C5.1_H5.1_A5.1_F5.1_[+8CCC]_T5.1 (ssRNA)
RNA: UCUCUUUGUAUUAUCCCUAUCUCUU
B16: Ie_S1_P5E.1_K5.1_C5.1_H5.1_A5.1_[+7CCCT]_F5.1_T5.1 (ssRNA)
RNA: UCUCUUUGUAUUACCCUUUAUCUCUU
B17: Ie_S1_P5E.1_K5.1_C5.1_H5.1_A5.1_F5.1_[+8CTT]_T5.1 (ssRNA)
RNA: UCUCUUUGUAUUAUCUUUAUCUCUU
B18: Ib_S2_P3E.1_K3.1_C3.1_H3.1_[G2C]_A3.1_F3.1_[A8T]_T3.1 (ssRNA)
RNA: UUUGAUUAAUAUGAUAUCGUUCUUUCUUCUAUAUUUUCUUUCUCGAUAUCAUAUUAAUCUUU
B19: Ib_S2_P3E.1_K3.1_C3.1_H3.1_[A4C]_A3.1_F3.1_[A8C]_T3.1 (ssRNA)
RNA: B18 RNA with C29G, A31C, U35C
B20: Ib_S2_P3E.1_K3.1_C3.1_H3.1_[A4G]_A3.1_F3.1_[A8C]_T3.1 (ssRNA)
RNA: B18 RNA with C29G, A31G, U35C
B21: Ib_S2_P3E.1_K3.1_C3.1_H3.1_[T3C]_A3.1_F3.1_[A8C]_T3.1 (ssRNA)
RNA: B18 RNA with C29G, U30C, U35C
B22: Ib_S2_P3E.1_K3.1_C3.1_H3.1_[A4G]_A3.1_F3.1_[A8T]_T3.1 (ssRNA)
RNA: B18 RNA with C29G, A31G
B23: Ie_S1_P5E.1_K5.1_C5.1_H5.1_A5.1_[+7TCTCT]_F5.1_T5.1 (ssRNA)
RNA: UCUCUUUGUAUUAUCUCUUUAUCUCUU
B24: Ie_S1_P5E.1_K5.1_C5.1_H5.1_A5.1_F5.1_[+8TC]_T5.1 (ssRNA)
RNA: UCUCUUUGUAUUAUUCUAUCUCUU
B25: Ie_S1_P5E.1_K5.1_C5.1_H5.1_A5.1_[+7CC]_F5.1_T5.1 (ssRNA)
RNA: UCUCUUUGUAUUACCUUAUCUCUU
B26: Ie_S1_P5E.1_K5.1_C5.1_H5.1_A5.1_F5.1_[+8TTT]_T5.1 (ssRNA)
RNA: UCUCUUUGUAUUAUUUUUAUCUCUU
B27: Ie_S1_P5E.1_K5.1_C5.1_H5.1_A5.1_[+6TTC]_F5.1_T5.1 (ssRNA)
RNA: UCUCUUUGUAUUUUCAUUAUCUCUU
B28: Ie_S1_P5E.1_K5.1_C5.1_H5.1_A5.1_F5.1_[+8CCT]_T5.1 (ssRNA)
RNA: UCUCUUUGUAUUAUCCUUAUCUCUU
B29: Ie_S1_P5E.1_K5.1_C5.1_H5.1_A5.1_[+7CCC]_F5.1_T5.1 (ssRNA)
RNA: UCUCUUUGUAUUACCCUUAUCUCUU
B30: Ie_S1_P5E.1_K5.1_C5.1_H5.1_A5.1_[+6TTCC]_F5.1_T5.1 (ssRNA)
RNA: UCUCUUUGUAUUUUCCAUUAUCUCUU
B31: Ie_S1_P5E.1_K5.1_C5.1_H5.1_A5.1_[+7CTCT]_F5.1_T5.1 (ssRNA)
RNA: UCUCUUUGUAUUACUCUUUAUCUCUU
B32: Ie_S1_P5E.1_K5.1_C5.1_H5.1_A5.1_[+7TT]_F5.1_T5.1 (ssRNA)
RNA: UCUCUUUGUAUUAUUUUAUCUCUU
B33: Ie_S1_P5E.1_K5.1_C5.1_H5.1_A5.1_F5.1_[+8CCCTT]_T5.1 (ssRNA)
RNA: UCUCUUUGUAUUAUCCCUUUAUCUCUU
B34: Ie_S1_P5E.1_K5.1_C5.1_H5.1_A5.1_F5.1_[+9CCCT]_T5.1 (ssRNA)
RNA: UCUCUUUGUAUUAUUCCCUAUCUCUU
B35: Ie_S1_P5E.1_K5.1_C5.1_H5.1_A5.1_F5.1_[+9TCTCT]_T5.1 (ssRNA)
RNA: UCUCUUUGUAUUAUUUCUCUAUCUCUU
B36: Ie_S1_P5E.1_K5.1_C5.1_H5.1_A5.1_F5.1_[+9TTCC]_T5.1 (ssRNA)
RNA: UCUCUUUGUAUUAUUUUCCAUCUCUU
B37: Ie_S1_P5E.1_K5.1_C5.1_H5.1_A5.1_[+7TC]_F5.1_T5.1 (ssRNA)
RNA: UCUCUUUGUAUUAUCUUAUCUCUU
B38: Ie_S1_P5E.1_K5.1_C5.1_H5.1_A5.1_F5.1_[+8CCTC]_T5.1 (ssRNA)
RNA: UCUCUUUGUAUUAUCCUCUAUCUCUU
B39: Ie_S1_P5E.1_K5.1_C5.1_H5.1_A5.1_F5.1_[+9TCTC]_T5.1 (ssRNA)
RNA: UCUCUUUGUAUUAUUUCUCAUCUCUU
B40: Ie_S1_P5E.1_K5.1_C5.1_H5.1_A5.1_[+6TCTCT]_F5.1_T5.1 (ssRNA)
RNA: UCUCUUUGUAUUUCUCUAUUAUCUCUU
B41: Ie_S1_P5E.1_K5.1_C5.1_H5.1_A5.1_[+6CCCT]_F5.1_T5.1 (ssRNA)
RNA: UCUCUUUGUAUUCCCUAUUAUCUCUU
B42: Ie_S1_P5E.1_K5.1_C5.1_H5.1_A5.1_F5.1_[+8TTC]_T5.1 (ssRNA)
RNA: UCUCUUUGUAUUAUUUCUAUCUCUU
B43: Ie_S1_P5E.1_K5.1_C5.1_H5.1_A5.1_F5.1_[+8T]_T5.1 (ssRNA)
RNA: UCUCUUUGUAUUAUUUAUCUCUU
B44: Ie_S1_P5E.1_K5.1_C5.1_H5.1_A5.1_F5.1_[+8CCTCT]_T5.1 (ssRNA)
RNA: UCUCUUUGUAUUAUCCUCUUAUCUCUU
B45: Ie_S1_P5E.1_K5.1_C5.1_H5.1_A5.1_[+6CCTC]_F5.1_T5.1 (ssRNA)
RNA: UCUCUUUGUAUUCCUCAUUAUCUCUU
B46: Ie_S1_P5E.1_K5.1_C5.1_H5.1_A5.1_F5.1_[+8CCCT]_T5.1 (ssRNA)
RNA: UCUCUUUGUAUUAUCCCUUAUCUCUU
B47: Ie_S1_P5E.1_K5.1_C5.1_H5.1_A5.1_F5.1_[+8CTCTC]_T5.1 (ssRNA)
RNA: UCUCUUUGUAUUAUCUCUCUAUCUCUU
B48: Ie_S1_P5E.1_K5.1_C5.1_H5.1_A5.1_[+7CCCTT]_F5.1_T5.1 (ssRNA)
RNA: UCUCUUUGUAUUACCCUUUUAUCUCUU
B49: Ie_S1_P5E.1_K5.1_C5.1_H5.1_A5.1_[+7TTCC]_F5.1_T5.1 (ssRNA)
RNA: UCUCUUUGUAUUAUUCCUUAUCUCUU
B50: Ie_S1_P5E.1_K5.1_C5.1_H5.1_A5.1_[+6CTCTC]_F5.1_T5.1 (ssRNA)
RNA: UCUCUUUGUAUUCUCUCAUUAUCUCUU
B51: Ie_S1_P5E.1_K5.1_C5.1_H5.1_A5.1_F5.1_[+9CCT]_T5.1 (ssRNA)
RNA: UCUCUUUGUAUUAUUCCUAUCUCUU
B52: Ie_S1_P5E.1_K5.1_C5.1_H5.1_A5.1_F5.1_[+8TCTCT]_T5.1 (ssRNA)
RNA: UCUCUUUGUAUUAUUCUCUUAUCUCUU
B53: Ie_S1_P5E.1_K5.1_C5.1_H5.1_A5.1_F5.1_[+8TCT]_T5.1 (ssRNA)
RNA: UCUCUUUGUAUUAUUCUUAUCUCUU
B54: Ie_S1_P5E.1_K5.1_C5.1_H5.1_A5.1_[+7TTCCT]_F5.1_T5.1 (ssRNA)
RNA: UCUCUUUGUAUUAUUCCUUUAUCUCUU
B55: Ie_S1_P5E.1_K5.1_C5.1_H5.1_A5.1_[+7TCTC]_F5.1_T5.1 (ssRNA)
RNA: UCUCUUUGUAUUAUCUCUUAUCUCUU
B56: Ie_S1_P5E.1_K5.1_C5.1_H5.1_A5.1_[+6TTCCT]_F5.1_T5.1 (ssRNA)
RNA: UCUCUUUGUAUUUUCCUAUUAUCUCUU
B57: Ie_S1_P5E.1_K5.1_C5.1_H5.1_A5.1_F5.1_[+8TCTC]_T5.1 (ssRNA)
RNA: UCUCUUUGUAUUAUUCUCUAUCUCUU
B58: Ie_S1_P5E.1_K5.1_C5.1_H5.1_A5.1_F5.1_[+9C]_T5.1 (ssRNA)
RNA: UCUCUUUGUAUUAUUCAUCUCUU
B59: Ie_S1_P5E.1_K5.1_C5.1_H5.1_A5.1_[+7CT]_F5.1_T5.1 (ssRNA)
RNA: UCUCUUUGUAUUACUUUAUCUCUU
B60: Ie_S1_P5E.1_K5.1_C5.1_H5.1_A5.1_F5.1_[+8TTCCT]_T5.1 (ssRNA)
RNA: UCUCUUUGUAUUAUUUCCUUAUCUCUU

Target: T1, PUF4 RNA-binding domain
Assay: Mg; RNA-MaP; 20 mM Na-HEPES pH 7.4, 30 mM KOAc, 0.75 mM MgCl2, 0.1% Tween-20, 5% glycerol, 0.1 mg/mL BSA, 2 mM DTT; 25 C; 0.0125-409.6 nM protein
Settings: tags: N-His6-TEV cleaved; C-SNAP kept, Cy3B-labelled; label: tethered on chip by stalled RNA polymerase

Binder	Kd [nM]
B1	14.3
B2	15
B3	66.2
B4	26.3
B5	17.6
B6	428
B7	350
B8	22.3
B9	30.3
B10	412
B11	20.4
B12	30.1
B13	60.4
B14	28.6
B15	33.8
B16	304
B17	19.2
B18	1310
B19	2130
B20	15.7

Binder	Kd [nM]
B21	> 2300
B22	8.99
B23	40.6
B24	19.9
B25	76.7
B26	13.4
B27	40.7
B28	20.7
B29	209
B30	51.8
B31	98.9
B32	15.6
B33	23.1
B34	16.2
B35	14
B36	19.4
B37	15.7
B38	31.9
B39	16.3
B40	30.9

Binder	Kd [nM]
B41	32.4
B42	18.2
B43	8.84
B44	23.1
B45	120
B46	33.5
B47	21.4
B48	143
B49	13.8
B50	84.4
B51	25.5
B52	16.8
B53	16.7
B54	16.7
B55	22.2
B56	26.7
B57	17.8
B58	25.3
B59	37.3
B60	17.1
